Laboratory results published in IntAct's records for PubMed 18524952.

B1: DNA replication licensing factor MCM3 (Mus musculus), P25206 (parent)
chain: MAGTVVLDDVELREAQRDYLDFLDDEEDQGIYQNKVRELISDNQYRLIVSVNDLRRKNEKRANRLLNNAFEELVAFQRALKDFVASIDATYAKQYEEFYIGLEGSFGSKHVSPRTLTSCFLSCVVCVEGIVTKCSLVRPKVVRSVHYCPATKKTIERRYSDLTTLVAFPSSSVYPTKDEENNPLETEYGLSVYKDHQTITIQEMPEKAPAGQLPRSVDVILDDDLVDKVKPGDRIQVVGTYRCLPGKKGCYTSGTFRTVLIACNVKQMSKDIQPAFSADDIAKIKKFSKTRSKDVFEQLARSLAPSIHGHDYVKKAILCLLLGGVERELENGSHIRGDINILLIGDPSVAKSQLLRYVLCTAPRAIPTTGRGSSGVGLTAAVTTDQETGERRLEAGAMVLADRGVVCIDEFDKMSDMDRTAIHEVMEQGRVTIAKAGIHARLNARCSVLAAANPVYGRYDQYKTPMENIGLQDSLLSRFDLLFIMLDQMDPEQDREISDHVLRMHQYRAPGEQDGDALPLGSSVDILATDDPDFTQDDQQDTRIYEKHDSLLHGTKKKKEKMVSAAFMKKYIHVAKIIKPTLTQESAAYIAEEYSRLRSQDSMSSDTARTSPVTARTLETLIRLATAHAKARMSKTVDLQDAEEAVELVQYAYFKKVLEKEKKRKKASEDESDLEDEEEKSQEDTEQKRKRRKTHAKDGESYDPYDFSEAETQMPQVHTPKTDDSQEKTDDSQETQDSQKVELSEPRLKAFKAALLEVFQEAHEQSVGMLHLTESINRNREEPFSSEEIQACLSRMQDDNQVMVSEGIVFLI
partner: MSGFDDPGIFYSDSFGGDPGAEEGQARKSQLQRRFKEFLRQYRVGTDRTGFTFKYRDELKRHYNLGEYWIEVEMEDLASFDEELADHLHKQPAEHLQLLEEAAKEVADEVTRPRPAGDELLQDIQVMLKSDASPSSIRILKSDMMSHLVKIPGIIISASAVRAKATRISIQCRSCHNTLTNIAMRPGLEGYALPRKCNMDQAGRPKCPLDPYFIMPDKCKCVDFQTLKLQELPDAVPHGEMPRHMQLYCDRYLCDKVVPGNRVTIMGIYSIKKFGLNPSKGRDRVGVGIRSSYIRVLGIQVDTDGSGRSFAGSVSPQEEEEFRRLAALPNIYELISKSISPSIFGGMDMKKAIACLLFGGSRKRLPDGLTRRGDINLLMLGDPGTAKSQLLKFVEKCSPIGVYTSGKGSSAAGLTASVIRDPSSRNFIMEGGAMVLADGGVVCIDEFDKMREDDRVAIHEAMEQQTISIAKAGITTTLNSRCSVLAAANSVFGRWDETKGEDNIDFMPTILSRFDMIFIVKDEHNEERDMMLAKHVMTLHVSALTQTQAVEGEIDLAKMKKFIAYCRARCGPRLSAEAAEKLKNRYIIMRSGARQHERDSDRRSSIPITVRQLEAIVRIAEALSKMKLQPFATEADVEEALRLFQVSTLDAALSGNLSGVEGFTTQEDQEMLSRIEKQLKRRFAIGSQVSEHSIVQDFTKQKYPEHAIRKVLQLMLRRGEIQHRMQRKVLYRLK
B2: DNA replication licensing factor MCM3 (Mus musculus), P25206 (parent)
chain: B1 chain

Variants of: B1
Settings: with mcm5_mouse Mcm5, P49718

Q: How did the “effect of a mutation on the interaction” value turn out when S112A was run?
A: decreasing interaction

Q: For S112A;S611A, which “effect of a mutation on the interaction” value is on record?
A: decreasing interaction

Q: S112A;T464A;S611A;T719A was tested. Which “effect of a mutation on the interaction” value did it give?
A: disrupting interaction

Q: Which “effect of a mutation on the interaction” value does the source give for S112A;T719A here?
A: decreasing interaction

Variants of: B2
Settings: with mcm2_mouse Mcm2, P97310
Chain of mcm2_mouse Mcm2, P97310 (P97310 whole entry): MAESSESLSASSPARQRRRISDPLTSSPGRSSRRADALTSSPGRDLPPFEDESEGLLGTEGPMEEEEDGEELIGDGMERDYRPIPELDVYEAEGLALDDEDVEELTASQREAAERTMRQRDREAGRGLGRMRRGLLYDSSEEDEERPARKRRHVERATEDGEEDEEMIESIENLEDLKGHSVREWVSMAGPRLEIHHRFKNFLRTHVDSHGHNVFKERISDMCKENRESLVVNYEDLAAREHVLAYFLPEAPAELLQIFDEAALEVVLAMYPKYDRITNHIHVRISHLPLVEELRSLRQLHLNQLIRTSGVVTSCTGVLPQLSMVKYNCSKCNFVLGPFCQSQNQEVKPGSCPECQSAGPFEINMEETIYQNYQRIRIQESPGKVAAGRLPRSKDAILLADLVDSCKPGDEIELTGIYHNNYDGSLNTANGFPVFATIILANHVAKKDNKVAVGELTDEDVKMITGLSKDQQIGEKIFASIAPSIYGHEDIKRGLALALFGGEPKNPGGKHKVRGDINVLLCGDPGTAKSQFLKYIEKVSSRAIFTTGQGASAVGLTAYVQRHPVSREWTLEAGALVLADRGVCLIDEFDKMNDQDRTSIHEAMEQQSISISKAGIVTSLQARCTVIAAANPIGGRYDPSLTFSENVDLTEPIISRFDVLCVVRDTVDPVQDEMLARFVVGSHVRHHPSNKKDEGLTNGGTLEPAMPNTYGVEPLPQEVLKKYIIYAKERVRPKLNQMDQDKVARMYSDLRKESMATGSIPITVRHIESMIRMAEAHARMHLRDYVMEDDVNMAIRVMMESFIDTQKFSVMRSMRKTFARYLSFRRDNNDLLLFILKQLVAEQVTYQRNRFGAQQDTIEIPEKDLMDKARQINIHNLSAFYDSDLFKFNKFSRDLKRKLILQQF

Q: With S112A as the variant, how does the “effect of a mutation on the interaction” value read?
A: disrupting interaction

Variants of: B2
Settings: with mcm7_mouse Mcm7, Q61881
Chain of mcm7_mouse Mcm7, Q61881 (Q61881 whole entry): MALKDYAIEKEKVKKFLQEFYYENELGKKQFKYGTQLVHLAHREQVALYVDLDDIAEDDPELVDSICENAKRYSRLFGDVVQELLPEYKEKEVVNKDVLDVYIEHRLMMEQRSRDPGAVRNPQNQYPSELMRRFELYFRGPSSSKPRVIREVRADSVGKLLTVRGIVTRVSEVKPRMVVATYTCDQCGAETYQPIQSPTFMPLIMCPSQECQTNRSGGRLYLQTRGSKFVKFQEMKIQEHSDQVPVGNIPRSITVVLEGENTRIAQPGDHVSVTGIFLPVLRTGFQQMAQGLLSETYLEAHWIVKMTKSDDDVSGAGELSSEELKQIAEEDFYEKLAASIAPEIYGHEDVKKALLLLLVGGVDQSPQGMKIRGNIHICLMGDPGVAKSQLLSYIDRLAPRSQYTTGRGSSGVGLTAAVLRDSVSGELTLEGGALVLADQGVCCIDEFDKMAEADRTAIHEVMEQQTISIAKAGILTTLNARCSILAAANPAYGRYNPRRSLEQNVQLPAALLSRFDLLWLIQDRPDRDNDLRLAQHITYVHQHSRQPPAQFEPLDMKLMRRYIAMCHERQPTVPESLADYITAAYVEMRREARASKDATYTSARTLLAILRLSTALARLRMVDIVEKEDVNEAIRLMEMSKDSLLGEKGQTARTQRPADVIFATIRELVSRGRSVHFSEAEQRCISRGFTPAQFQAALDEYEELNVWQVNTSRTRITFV

Q: With S112A as the variant, how does the “effect of a mutation on the interaction” value read?
A: disrupting interaction
